Results as given in patent US20160008485A1 (Pfizer, published 2016).
“And” between values parts separate entries of the source, which are not always exact repeats. Equal entries are not always repeated.

B1: parental anti-5T4 antibody (wild type human IgG1) (antibody)
heavy: not shown
light: DIQMTQSPSSLSASVGDRVTITCKASQSVSNDVAWYQQKPGKAPKLLIYFATNRYTGVPSRFSGSGYGTDFTLTISSLQPEDFATYYCQQDYSSPWTFGQGTKVEIKRTVAAPSVFIFPPSDEQLKSGTASVVCLLNNFYPREAKVQWKVDNALQSGNSQESVTEQDSKDSTYSLSSTLTLSKADYEKHKVYACEVTHQGLSSPVTKSFNRGEC
notes: Humanized, human IgG1/kappa; also called Parental anti-5T4 Ab; wt IgG1
B2: 5T4-E380C (antibody, human IgG1, kappa)
heavy: not shown
light: B1 light
B3: 5T4-K392C (antibody, human IgG1, kappa)
heavy: not shown
light: B1 light
B4: 5T4-L398C (antibody, human IgG1, kappa)
heavy: not shown
light: B1 light
B5: 5T4-V422C (antibody, human IgG1, kappa)
heavy: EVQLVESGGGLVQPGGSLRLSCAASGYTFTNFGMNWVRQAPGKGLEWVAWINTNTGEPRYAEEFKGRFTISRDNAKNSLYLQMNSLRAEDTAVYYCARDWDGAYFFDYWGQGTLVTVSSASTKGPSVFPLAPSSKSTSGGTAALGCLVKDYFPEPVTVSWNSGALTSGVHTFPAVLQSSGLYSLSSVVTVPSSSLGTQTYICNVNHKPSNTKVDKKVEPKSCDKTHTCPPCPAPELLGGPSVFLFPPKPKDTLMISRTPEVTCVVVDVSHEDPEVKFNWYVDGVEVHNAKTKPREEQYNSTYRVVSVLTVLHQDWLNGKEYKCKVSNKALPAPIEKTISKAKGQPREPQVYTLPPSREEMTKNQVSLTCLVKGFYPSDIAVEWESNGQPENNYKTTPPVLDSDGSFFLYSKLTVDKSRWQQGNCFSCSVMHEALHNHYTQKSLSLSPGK
light: B1 light
B6: 5T4-S440C (antibody, IgG1)
heavy: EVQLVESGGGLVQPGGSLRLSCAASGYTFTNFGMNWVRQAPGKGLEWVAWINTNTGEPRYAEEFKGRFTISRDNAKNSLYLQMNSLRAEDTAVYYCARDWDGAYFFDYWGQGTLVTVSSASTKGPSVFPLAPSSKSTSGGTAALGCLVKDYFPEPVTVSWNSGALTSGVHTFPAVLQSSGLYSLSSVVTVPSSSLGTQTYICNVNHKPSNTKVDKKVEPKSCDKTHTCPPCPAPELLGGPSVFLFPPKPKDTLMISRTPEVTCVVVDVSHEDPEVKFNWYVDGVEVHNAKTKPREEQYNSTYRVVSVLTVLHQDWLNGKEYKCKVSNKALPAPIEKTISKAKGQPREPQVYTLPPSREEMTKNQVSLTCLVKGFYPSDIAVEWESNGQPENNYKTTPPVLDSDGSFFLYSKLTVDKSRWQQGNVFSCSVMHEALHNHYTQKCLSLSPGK
light: B1 light
B7: 5T4-T359C (antibody, human IgG1, kappa)
heavy: not shown
light: B1 light
B8: 5T4-F404C (antibody, human IgG1, kappa)
heavy: not shown
light: B1 light
B9: 5T4-E380C-mcMMAD (antibody, human IgG1, kappa)
heavy: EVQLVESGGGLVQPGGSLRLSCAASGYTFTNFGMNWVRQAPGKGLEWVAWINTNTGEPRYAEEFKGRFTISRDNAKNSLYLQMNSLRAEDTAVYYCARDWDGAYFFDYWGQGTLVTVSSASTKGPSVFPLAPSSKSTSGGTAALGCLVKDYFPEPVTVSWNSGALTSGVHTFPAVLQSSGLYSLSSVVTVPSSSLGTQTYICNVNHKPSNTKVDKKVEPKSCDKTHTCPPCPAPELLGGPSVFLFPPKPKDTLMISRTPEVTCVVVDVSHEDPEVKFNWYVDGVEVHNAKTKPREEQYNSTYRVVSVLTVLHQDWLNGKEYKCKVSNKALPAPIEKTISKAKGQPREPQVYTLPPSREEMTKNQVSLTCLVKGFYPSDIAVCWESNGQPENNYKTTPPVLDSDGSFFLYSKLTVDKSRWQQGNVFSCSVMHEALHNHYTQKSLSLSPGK
light: B1 light
modifications: mcMMAD on engineered Cys 380 (EU)
notes: Antibody-drug conjugate
B10: 5T4-L398C-mcMMAD (antibody, human IgG1, kappa)
heavy: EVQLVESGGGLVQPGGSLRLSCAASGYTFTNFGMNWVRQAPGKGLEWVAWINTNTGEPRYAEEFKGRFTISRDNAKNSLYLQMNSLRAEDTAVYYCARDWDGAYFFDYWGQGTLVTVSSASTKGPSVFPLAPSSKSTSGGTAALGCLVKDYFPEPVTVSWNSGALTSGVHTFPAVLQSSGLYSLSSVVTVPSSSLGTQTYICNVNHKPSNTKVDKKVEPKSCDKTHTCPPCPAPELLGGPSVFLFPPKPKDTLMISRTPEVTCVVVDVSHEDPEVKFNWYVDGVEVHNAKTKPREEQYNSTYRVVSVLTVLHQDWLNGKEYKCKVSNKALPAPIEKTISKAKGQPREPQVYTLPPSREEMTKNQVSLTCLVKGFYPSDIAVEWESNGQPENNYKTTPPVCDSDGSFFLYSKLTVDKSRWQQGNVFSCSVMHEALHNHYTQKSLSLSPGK
light: B1 light
modifications: mcMMAD on engineered Cys 398 (EU)
notes: Antibody-drug conjugate
B11: 5T4-L443C-mcMMAD (antibody)
heavy: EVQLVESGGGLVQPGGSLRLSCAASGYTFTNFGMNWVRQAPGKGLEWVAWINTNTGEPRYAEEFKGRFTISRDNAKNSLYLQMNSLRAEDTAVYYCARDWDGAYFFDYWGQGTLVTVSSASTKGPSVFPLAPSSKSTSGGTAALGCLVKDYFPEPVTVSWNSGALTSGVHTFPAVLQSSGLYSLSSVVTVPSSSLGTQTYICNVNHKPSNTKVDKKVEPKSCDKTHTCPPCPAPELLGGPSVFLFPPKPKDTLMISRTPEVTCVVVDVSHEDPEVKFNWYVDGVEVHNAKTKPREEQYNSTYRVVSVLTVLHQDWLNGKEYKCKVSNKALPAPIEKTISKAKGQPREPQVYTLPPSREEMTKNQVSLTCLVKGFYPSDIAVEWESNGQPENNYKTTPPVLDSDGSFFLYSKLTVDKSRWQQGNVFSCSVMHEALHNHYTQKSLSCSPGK
light: B1 light
modifications: mcMMAD on engineered Cys 443 (EU)
notes: Antibody-drug conjugate; also called 5T4-L443C-mcMMAD (1)
B12: 5T4-V422C-mcMMAD (antibody, human IgG1, kappa)
heavy: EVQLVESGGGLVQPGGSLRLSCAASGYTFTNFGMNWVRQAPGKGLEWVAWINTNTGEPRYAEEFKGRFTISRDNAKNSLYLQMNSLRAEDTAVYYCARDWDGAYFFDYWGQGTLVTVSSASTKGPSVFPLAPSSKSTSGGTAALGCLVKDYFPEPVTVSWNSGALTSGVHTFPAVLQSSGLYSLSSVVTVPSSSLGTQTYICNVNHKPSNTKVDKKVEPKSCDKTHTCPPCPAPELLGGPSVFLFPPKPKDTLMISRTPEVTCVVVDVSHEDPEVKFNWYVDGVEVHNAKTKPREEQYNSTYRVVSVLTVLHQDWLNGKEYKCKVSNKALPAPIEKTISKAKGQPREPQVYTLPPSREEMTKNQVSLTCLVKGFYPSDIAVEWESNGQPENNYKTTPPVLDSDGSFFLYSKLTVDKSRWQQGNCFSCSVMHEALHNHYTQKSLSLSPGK
light: B1 light
modifications: mcMMAD on engineered Cys 422 (EU)
notes: Antibody-drug conjugate
B13: 5T4-E380C+L443C-mcMMAD (antibody)
heavy: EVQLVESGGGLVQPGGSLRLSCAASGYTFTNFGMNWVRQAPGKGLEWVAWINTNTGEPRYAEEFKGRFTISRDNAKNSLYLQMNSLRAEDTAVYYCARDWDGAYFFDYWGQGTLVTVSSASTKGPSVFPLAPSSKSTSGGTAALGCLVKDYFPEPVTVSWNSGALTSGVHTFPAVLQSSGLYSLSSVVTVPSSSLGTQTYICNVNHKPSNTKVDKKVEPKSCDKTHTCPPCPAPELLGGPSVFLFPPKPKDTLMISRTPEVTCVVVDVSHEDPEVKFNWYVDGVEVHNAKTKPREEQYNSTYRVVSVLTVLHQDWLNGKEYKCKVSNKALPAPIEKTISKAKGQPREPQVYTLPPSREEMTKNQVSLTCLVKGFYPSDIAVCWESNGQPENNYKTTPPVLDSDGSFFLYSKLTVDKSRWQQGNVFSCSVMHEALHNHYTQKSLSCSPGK
light: B1 light
modifications: mcMMAD on engineered Cys 380 and Cys 443 (EU)
B14: 5T4-K392C-mcMMAD (antibody, human IgG1, kappa)
heavy: not shown
light: B1 light
modifications: mcMMAD on engineered Cys 392 (EU)
B15: 5T4-L398C-vcMMAD (antibody, human IgG1, kappa)
heavy: not shown
light: B1 light
modifications: vcMMAD (mcValCitPABC-MMAD) on engineered Cys 398 (EU)
B16: 5T4-V422C-vcMMAD (antibody, human IgG1, kappa)
heavy: not shown
light: B1 light
modifications: vcMMAD (mcValCitPABC-MMAD) on engineered Cys 422 (EU)
B17: 5T4-L398C+V422C-mcMMAD (antibody, human IgG1, kappa)
heavy: not shown
light: B1 light
modifications: mcMMAD on engineered Cys 398 and Cys 422 (EU)
B18: 5T4-E380C-vcMMAD (antibody, human IgG1, kappa)
heavy: not shown
light: B1 light
modifications: vcMMAD (mcValCitPABC-MMAD) on engineered Cys 380 (EU)
B19: 5T4-L398C+L443C-mcMMAD (antibody)
heavy: not shown
light: B1 light
modifications: mcMMAD on engineered Cys 398 and Cys 443 (EU)
B20: 5T4-E380C+L398C-mcMMAD (antibody, human IgG1, kappa)
heavy: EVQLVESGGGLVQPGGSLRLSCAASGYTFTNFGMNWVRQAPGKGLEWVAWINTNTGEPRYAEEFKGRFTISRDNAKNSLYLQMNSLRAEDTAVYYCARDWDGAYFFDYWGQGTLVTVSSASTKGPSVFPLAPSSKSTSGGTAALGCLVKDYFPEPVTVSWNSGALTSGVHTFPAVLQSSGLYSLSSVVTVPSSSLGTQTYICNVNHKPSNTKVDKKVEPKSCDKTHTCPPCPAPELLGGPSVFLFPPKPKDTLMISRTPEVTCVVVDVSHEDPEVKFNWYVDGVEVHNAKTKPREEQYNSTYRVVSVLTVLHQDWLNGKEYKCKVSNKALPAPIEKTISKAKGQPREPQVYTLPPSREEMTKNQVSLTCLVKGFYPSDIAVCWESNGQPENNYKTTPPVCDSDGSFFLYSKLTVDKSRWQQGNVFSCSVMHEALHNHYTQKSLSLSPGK
light: B1 light
modifications: mcMMAD on engineered Cys 380 and Cys 398 (EU)
B21: 5T4-L443C-vcMMAD (antibody)
heavy: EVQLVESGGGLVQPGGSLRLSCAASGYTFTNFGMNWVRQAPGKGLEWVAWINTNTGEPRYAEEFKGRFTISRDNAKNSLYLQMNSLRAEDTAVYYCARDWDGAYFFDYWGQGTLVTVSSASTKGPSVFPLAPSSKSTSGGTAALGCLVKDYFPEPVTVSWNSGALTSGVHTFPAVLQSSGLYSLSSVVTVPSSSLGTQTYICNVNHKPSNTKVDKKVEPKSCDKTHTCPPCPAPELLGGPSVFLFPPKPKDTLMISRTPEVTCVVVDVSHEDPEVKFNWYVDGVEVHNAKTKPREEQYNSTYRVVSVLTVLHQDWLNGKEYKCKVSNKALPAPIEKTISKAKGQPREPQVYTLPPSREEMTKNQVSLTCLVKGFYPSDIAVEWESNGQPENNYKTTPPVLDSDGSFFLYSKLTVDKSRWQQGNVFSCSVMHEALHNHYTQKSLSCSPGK
light: B1 light
modifications: vcMMAD (mcValCitPABC-MMAD) on engineered Cys 443 (EU)
B22: 5T4-E380C+V422C-mcMMAD (antibody, human IgG1, kappa)
heavy: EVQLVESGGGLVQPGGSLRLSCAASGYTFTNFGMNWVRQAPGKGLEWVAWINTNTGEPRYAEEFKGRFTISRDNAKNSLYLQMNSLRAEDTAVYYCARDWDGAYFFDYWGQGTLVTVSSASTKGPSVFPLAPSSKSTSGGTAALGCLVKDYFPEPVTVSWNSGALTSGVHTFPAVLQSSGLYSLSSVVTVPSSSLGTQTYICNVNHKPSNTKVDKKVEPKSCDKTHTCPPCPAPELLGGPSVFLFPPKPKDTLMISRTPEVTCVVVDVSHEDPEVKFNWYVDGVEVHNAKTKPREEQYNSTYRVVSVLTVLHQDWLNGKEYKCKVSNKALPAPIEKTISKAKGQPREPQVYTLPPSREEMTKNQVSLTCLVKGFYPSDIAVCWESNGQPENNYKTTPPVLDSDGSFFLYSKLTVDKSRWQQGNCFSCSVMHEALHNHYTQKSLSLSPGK
light: B1 light
modifications: mcMMAD on engineered Cys 380 and Cys 422 (EU)
B23: 5T4-K392C+L443C-mcMMAD (antibody)
heavy: not shown
light: B1 light
modifications: mcMMAD on engineered Cys 392 and Cys 443 (EU)

Each binder was assayed against T1, human FcRn (human, UniProt P55899 24-297; P61769 21-119, limits assumed, biotinylated through an engineered Avi-tag) (assay: BIAcore SPR, steady state, pH 6.0, biotinylated human FcRn on SA chip).
T1 construct: Immobilised on a streptavidin chip; not shown: engineered Avi-tag
T1 sequence (P55899 24-297 limits assumed, chain 1 of 2): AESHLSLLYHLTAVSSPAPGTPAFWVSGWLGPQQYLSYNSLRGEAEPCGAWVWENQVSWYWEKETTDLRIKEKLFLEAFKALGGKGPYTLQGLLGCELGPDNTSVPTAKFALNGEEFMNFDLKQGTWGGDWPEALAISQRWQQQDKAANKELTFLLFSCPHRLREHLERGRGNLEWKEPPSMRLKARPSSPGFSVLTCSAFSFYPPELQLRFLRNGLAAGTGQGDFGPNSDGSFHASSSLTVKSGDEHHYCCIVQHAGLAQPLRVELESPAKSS
T1 sequence (P61769 21-119 limits assumed, chain 2 of 2): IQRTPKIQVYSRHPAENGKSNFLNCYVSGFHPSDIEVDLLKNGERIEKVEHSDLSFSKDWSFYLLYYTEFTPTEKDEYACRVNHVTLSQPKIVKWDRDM

Point of comparison: B5, Kd 443 nM. Against it:
- B1 — within 1.5-fold, 412 nM
- B2 — within 1.5-fold, 390 nM
- B3 — within 1.5-fold, 384 nM
- B4 — within 1.5-fold, 513 nM
- B6 — within 1.5-fold, 608 nM

These binders were tested against T2, human truncated recombinant 5T4 protein (5T4-tm-_myc_his) (human, UniProt Q13641 32-355) (assay: competition ELISA on plate-coated 5T4-tm-_myc_his; competitor: biotinylated wild type anti-5T4 antibody at 1.3 nM, detected with streptavidin-HRP, OD450).
T2 construct: extracellular domain; Coated on the ELISA plate; construct cited to Boghaert et al. 2008; also called 5T4 antigen; not shown: Myc and histidine tags
T2 sequence (looked up): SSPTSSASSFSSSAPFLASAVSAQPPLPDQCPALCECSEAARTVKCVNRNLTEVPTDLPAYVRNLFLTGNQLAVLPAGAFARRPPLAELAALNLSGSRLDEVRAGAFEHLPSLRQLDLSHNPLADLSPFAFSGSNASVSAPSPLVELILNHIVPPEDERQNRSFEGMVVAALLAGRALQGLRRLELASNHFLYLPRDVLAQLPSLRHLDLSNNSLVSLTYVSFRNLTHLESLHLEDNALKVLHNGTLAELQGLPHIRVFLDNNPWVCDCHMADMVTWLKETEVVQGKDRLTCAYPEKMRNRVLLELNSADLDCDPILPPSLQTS

Point of comparison: B5, “IC50 (read off the curve)” value ~7 nM. Against it:
- B7 — within 1.5-fold, ~6 nM
- B4 — the same, ~7 nM
- B6 — within 1.5-fold, ~6 nM

B8: binds.

Target: T1, human FcRn
Experiment: BIAcore SPR, steady state, pH 6.0, biotinylated human FcRn on SA chip
Remark: another data set of the same source
From the text: Binding is detected by surface plasmon resonance (SPR) of laser light refracting from the surface. Human FcRn was specifically biotinylated through an engineered Avi-tag using the BirA reagent (Catalog #: BIRA500, Avidity, LLC, Aurora, Colo.) and immobilized onto a streptavidin (SA) sensor chip to enable uniform orientation of the FcRn protein on the sensor.

Point of comparison: B9, Kd 409 nM. Against it:
- B1 — within 1.5-fold, 493 nM
- B10 — 1.7-fold higher, 704 nM
- B12 — within 1.5-fold, 402 nM

With B11 the Kd was 697 nM and 518 nM.

Each binder was assayed against T3, human 5T4 antigen on cells (MDAMB435/5T4 transfectants; MDA-MB-468) (human, UniProt Q13641 32-420) (assay: cell-based or functional assay).
T3 sequence (looked up): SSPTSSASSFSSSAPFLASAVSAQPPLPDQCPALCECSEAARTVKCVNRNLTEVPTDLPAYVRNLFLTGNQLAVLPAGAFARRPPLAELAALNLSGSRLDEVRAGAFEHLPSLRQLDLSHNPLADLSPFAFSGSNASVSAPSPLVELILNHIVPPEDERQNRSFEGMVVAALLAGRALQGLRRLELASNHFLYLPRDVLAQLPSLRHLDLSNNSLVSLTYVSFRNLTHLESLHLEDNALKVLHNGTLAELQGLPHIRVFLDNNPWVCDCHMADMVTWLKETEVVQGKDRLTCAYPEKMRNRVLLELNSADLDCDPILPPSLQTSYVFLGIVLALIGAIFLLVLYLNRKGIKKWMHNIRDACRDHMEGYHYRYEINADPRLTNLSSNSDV

Point of comparison: B22, “IC50, growth inhibition (MTS), MDA-MB-468 cells (5T4 expression 2+)” value 5000 ng/mL. Against it:
- B13 — 1.5-fold lower, 3300 ng/mL
- B14 — 6.4-fold higher, 32000 ng/mL
- B17 — 3.4-fold higher, 17000 ng/mL
- B20 — within 1.5-fold, 5100 ng/mL
- B21 — 3.6-fold lower, 1400 ng/mL
- B23 — 6-fold higher, 30000 ng/mL
- B9 — 1.6-fold higher, 8100 ng/mL
- B10 — 2.6-fold higher, 13000 ng/mL
- B11 — 4-fold higher, 20000 ng/mL
- B12 — 7.2-fold higher, 36000 ng/mL

Point of comparison: B13, “IC-50, growth inhibition (MTS), MDAMB435/5T4 cells (5T4 expression 3+)” value 79 ng ADC/ml. Against it:
- B14 — higher, 160 ng ADC/ml
- B15 — lower, 14 ng ADC/ml
- B16 — lower, 15 ng ADC/ml
- B17 — higher, 100 ng ADC/ml
- B18 — lower, 15 ng ADC/ml
- B20 — the same, 79 ng ADC/ml
- B21 — lower, 40 ng ADC/ml
- B22 — higher, 100 ng ADC/ml
- B23 — higher, 98 ng ADC/ml
- B9 — higher, 170 ng ADC/ml
- B10 — higher, 160 ng ADC/ml
- B11 — higher, 120 ng ADC/ml
- B12 — higher, 270 ng ADC/ml

With B19 the “IC50, growth inhibition (MTS), MDA-MB-468 cells (5T4 expression 2+)” value was 5500 ng/mL and 7100 ng/mL.
